This data set can be described thus: soluble on expression in E. coli; label from the status in PepcDB or PDB records.
In the case of “MDDATEQEVFNRMQMTQFEEKRFELRETCPKCHQILSSELSRLWHQFVHMDAYNGFLDGKFQIQLPDFEFVRSNVIPCPFSTCSLLFLDLIDARFHYLLEHQSCQLFCCGVRFSDYKTALEHLQGTGSVETEAWDQQKHFLKPVYICNCCNRTWSSRSEYVAHLHGRDHMCPDPVCKYIFETNEKCIRHFFEQHYKHLFLDSRHLLLNYKDHMCVPHVNADFGTTRGFRATWQARIVNFLIEKS”, the “soluble on expression in E. coli” value is recorded as “not soluble”.

As to “MDDIIQQLFKEVERPQLTVNEQALQQYLYREIVRLTLLVEPTISKPQIIGLLSALVKKARHYVNADNQAECIQQLLDLVYQEWRFHCDYQEYFYTDNLLLHRVIRSHRGMPLSIGAIVLYLAAKLQLPIYPVNFPTQLILRAEITESSGKKTVRFINPWDGQFLPLELLLKWLEGEVGYGVELSPELLRRADPAELLERVETVFKMVLTREGKYEQTLRLIEYRLAENPDDPYEIRDRGMVLASMDCYQAAYDDLSYFIDQCPDDPSAAILKSEVKGLEQKSKQNQVHLEHHHHHH”, the “soluble on expression in E. coli” value was “soluble”.

Turning to “MDDKKDNRHLSKPAYREECTGDTERSTTAYMDILEDVSTGSTSKLPLEAKFVKISNNISEKENLPKEKEIGGVKGLEPTRYGDWQHKGKVTDF”, the “soluble on expression in E. coli” value is recorded as “soluble”.

As for “MDDQIKQIAERLRGLRDVLELTAEDIARDCEISAEEYRLAETGDYDISVSMLQKIARKYGIALDALMFGEEPKMSSYFLTRAGKGTSIERTKAYKYQSLAAGFMNRNADPFIVTVEPKPDIEPIHYNSHSGQEFNLVLEGRMMISIDGKDLILNEGDSLYFNSKLPHGMKALDGKTVRFLAVIM”, the “soluble on expression in E. coli” value is listed as “not soluble”.

Consider “MDEEPERTKRWEGGYERTWEILKEDESGSLKATIEDILFKAKRKRVFEHHGQVRLGMMRHLYVVVDGSRTMEDQDLKPNRLTCTLKLLEYFVEEYFDQNPISQIGIIVTKSKRAEKLTELSGNPRKHITSLKKAVDMTCHGEPSLYNSLSIAMQTLKHMPGHTSREVLIIFSSLTTCDPSNIYDLIKTLKAAKIRVSVIGLSAEVRVCTVLARETGGTYHVILDESHYKELLTHHVSPPPASSSSECSLIRMGFPQHTIASLSDQDAKPSFSMAHLDGNTEPGLTLGGYFCPQCRAKYCELPVECKICGLTLVSAPHLARSYHHLFPLDAFQEIPLEEYNGERFCYGCQGELKDQHVYVCAVCQNVFCVDCDVFVHDSLHCCPGCIHKIPAPSGV”, for which the “soluble on expression in E. coli” value is recorded as “soluble”.

“MDEFVKGLMKNGYLITPSAYYLLVGHFNEGKFSLIELIKFAKSRETFIIDDEIANEFLKSIGAEVELPQEIKEGYISTGEGSQKVPDHEELEKITNESSVESSISTGETPKTEELQPTLDILEEEIGDIEGGESSISTGDEVPEVENNNGGTVVVFDKYGYPFTYVPEEIEEELEEYPKYEDVTIEINPNLEVVPIEKDYEIKFDVRRVKLKPPKVKSGSGKEGEIIVEAYASLFRSRLRKLRRILRENPEVSNVIDIKKLKYVKGDEEVTIIGLVNSKKETSKGLIFEVEDQTDRVKVFLPKDSEDYREALKVLPDAVVAFKGVYSKRGIFFANRFYLPDVPLYRKQKPPLEEKVYAVLTSDIHVGSKEFCEKAFIKFLEWLNGYVESKEEEEIVSRIRYLIIAGDVVDGIGIYPGQYSDLIIPDIFDQYEALANLLSNVPKHITIFIGPGNHDAARPAIPQPEFYEEYAKPLYKLKNTVIISNPAVIRLHGRDFLIAHGRGIEDVVSFVPGLTHHKPGLPMVELLKMRHLAPTFGGKVPIAPDPEDLLVIEEVPDLVQMGHVHVYDTAVYRGVQLVNSATWQAQTEFQKMVNIVPTPGLVPIVDVESARVIKVLDFSRWC”: the “soluble on expression in E. coli” value is given as “soluble”.

“MDELSDIGDWSLIQSFLAVAETGSLSAAARQLDRSQPTLGRHVQALEQALGLSLFDRHARGLKLSADGARILPLAQQAHRAMTAISVTAAGQSQSLAGTVRITASVFASHHILPPILADIRAAEPAIELELVPSDTTENLLFRAADIAVRMYRPRQVDIVARHIGDVPLCACAATSYLERKGRPTRAEDLLDFDLVGYDADPIIVKTMQALGWPVTRHSFAMRCDNQSAYWQLIRAGCGIGFGQRSIVAADPLVEVLPFELPVPPLEMWLAAPQAMRLTPRIRRVWDLLAAGLLAAPL”: the “soluble on expression in E. coli” value is reported as “not soluble”.

Turning to “MDEYNKNPEENDKPEYDMKMEALLKVLNREIPIKAHAHRADDILTAIRIAKEFGLRLTIEHCTEGHLIKDILAEEGVSAIVGSSLTDRSKVELRNLSLKTPGILAKAGVKVAIMTDHPCTPIQYLILCAAMAVREGMDEMEALRAVTINAAELTGIADRVGSIEVGKDADIAIYDGHPFDIRSKVSTTIINGKVVYERKKHERD”, the “soluble on expression in E. coli” value is “not soluble”.

For “MDFMISHFCDEQNHQPLYKTRRQSISDSKNGPTLLSSSLPTNDECSDSDTENRLPPETELGNIEYKAKLVNPTTSRIQHLITQMKWRLREGQGEAIYEIGVEDGGIMSGLTDEELNDSLRTLRTMAQALGASMVILTEKDVTVKGSNSRRTVVEVLVRKVPESQQFIEVRLAVVGGCDVGKSTLCGVLTQGCLDDGNGKARIGIFRFPHEVRTGKTSSVCNDVIGFDNRGKLVNYAQNSLEEMVEKSSKLVTLIDLAGDAKYQKTTIHGLTGYTPHFACLVVAADRGITWATREHLGLIAALNIPMFVLITKMDLVDRQGLKKIIKDVSNLVAKAGMTAREKRVKTKRDAVKAAQELCVGSIVPVLAVSSVSGEGFRCLRTLLNCLSTAGTAESRIQLVGLPAFFTIEELYNVPHVGQVVGGMLSEGQLHEGADVLVGPMKDGTFEKITVGSIRRSRQAVGCVNPGEAASISLNLPDGVSLRRGMVLAEIDHQPPVCYEFTANLLLLCHSTKYICEGFQATVFIGSVCTTAIITHIDDADCIRPGKWAVVKMCFAYQPEVIREGSPIILRQGKTKGMGEVLKVFPCTQ”, the “soluble on expression in E. coli” value is recorded as “not soluble”.

Turning to “MDGCMPGISATTLLKQQNIPESFKFYFKRRFAPLVTDGPHLNELVRPRLKIAIVTETWPPEINGVAMSLLQLCKGLQEQGHKILLVRPQQKRECYEFSPHKECLVHAQRIPKYPELQFGWPQYLKVAKAFEDFTPDVVHVVTEGPLGLTALYAARAKQIPVSSGFHSPFQDFSRFFDLAFLLKPIQGYLRWFHNHTQITCVPSQDTEKALRAFGVTCPLSIVGRGVDPKFFSPDFRNEALRERWKAASDTVVMLYVGRLSPEKEIHILIQNYAAMRRVEPRNVKLVIVGSGPDRARLEALDETQEVIFMGSLSGKNLAEAYASADVFVFASQVETFGNVVLEAMASGLPVVAYDYACAHQYIQHGVTGWLSPLGQPATFIQAMRQLSGVKQLRQMGQRARQCVEHDGWQYPVQQMEQALYRVVKEPYMKLEHHHHHH”, the “soluble on expression in E. coli” value is reported as “not soluble”.

On to “MDGIFAGIICNQANRCLTWTSQQLFSEKISGAEGTKLDDEFLDMERKIDVTNKVVAEILSKTTEYLQPNPAYRAKLGMLNTVSKIRGQVKTTGYPQTEGLLGDCMLKYGKELGEDSTFGNALIEVGESMKLMAEVKDSLDINVKQTFIDPLQLLQDKDLKEIGHHLKKLEGRRLDYDYKKKRVGKIPDEEVRQAVEKFEESKELAERSMFNFLENDVEQVSQLAVFIEAALDYHRQSTEILQELQSKLQMRISAASSVPRREYKPRPVKRSSSELNGVSTTSVVKTTGSNIPMDQPCCRGLYDFEPENQGELGFKEGDIITLTNQIDENWYEGMIHGESGFFPINYVEVIVPLPQ”, for which the “soluble on expression in E. coli” value is on record as “soluble”.

In the case of “MDGSLSRPAVLDRAARQKRGTMARPQSKKKQTQVVRRPRRRGRLVPPGRLIAGRDFPEFLQQAVLLSGSLRQAARKLRVSYSTLRGWFGRRCDEPPEGGGDLLAEHAAAIRAELDAAAERLAMVRGQLDALERGE”, the “soluble on expression in E. coli” value is given as “not soluble”.

With “MDHLKHLQQLQNIERIVLSGIVLANHKIEEVHSVLEPSDFYYPPNGLFFEIALKLHEEDCPIDENFIRQKMPKDKQIKEEDLVAIFAASPIDNIEAYVEEIKNASIKRKLFGLANTIREQALESAQKSSDILGAVEREVYALLNGSTIEGFRNIKEVLESAMDLITENQRKGSLEVTGIPTGFVQLDNYTSGFNKGSLVIIGARPSMGKTSLMMNMVLSALNDDRGVAVFSLEMSAEQLALRALSDLTSINMHDLESGRLDDDQWENLAKCFDHLSQKKLFFYDKSYVRIEQIRLQLRKLKSQHKELGIAFIDYLQLMSGSKATKERHEQIAEISRELKTLARELEIPIIALVQLNRSLENRDDKRPILSDIKDSGGIEQDADIVLFLYRGYIYQMRAEDNKIDKLKKEGKIEEAQELYLKVNEERRIHKQNGSIEEAEIIVAKNRNGATGTVYTRFNAPFTRYEDMPIDSHLEEGQETKVDYDIVTT”, the “soluble on expression in E. coli” value is “not soluble”.

As to “MDIETIVNEFETRAGTLLRYYTGLLERSKVQPCCFKLYNDPFDMVYVMMNSKLFSHVYIKDCKVRQSFELASPKHTEGLIRSIEGHYVGYELHDGKQLSISDMMASQLFEDEYFMYGLQTYAESNNSDVFKCLENGFDTDTLEGIQSSNTDVIANIEMLYQLATGINEPVPELVEGLKLVTEFVQDENATQEDYKALERKLNDLKASYYSLSKLAAALEHHHHHH”, the “soluble on expression in E. coli” value is listed as “soluble”.

For “MDIKVHFHDFSHVRIDCEESTFHELRDFFSFEADGYRFNPRFRYGNWDGRIRLLDYNRLLPFGLVGQIKKFCDNFGYKAWIDPQINEKEELSRKDFDEWLSKLEIYSGNKRIEPHWYQKDAVFEGLVNRRRILNLPTSAGRSLIQALLARYYLENYEGKILIIVPTTALTTQMADDFVDYRLFSHAMIKKIGGGASKDDKYKNDAPVVVGTWQTVVKQPKEWFSQFGMMMNDECHLATGKSISSIISGLNNCMFKFGLSGSLRDGKANIMQYVGMFGEIFKPVTTSKLMEDGQVTELKINSIFLRYPDEFTTKLKGKTYQEEIKIITGLSKRNKWIAKLAIKLAQKDENAFVMFKHVSHGKAIFDLIKNEYDKVYYVSGEVDTETRNIMKTLAENGKGIIIVASYGVFSTGISVKNLHHVVLAHGVKSKIIVLQTIGRVLRKHGSKTIATVWDLIDDAGVKPKSANTKKKYVHLNYLLKHGIDRIQRYADEKFNYVMKTVNLLEHHHHHH”, the “soluble on expression in E. coli” value is listed as “soluble”.

For the sequence “MDIKVIREKLTLTTSITSESVAEYEHDVDECCRLLEHKLELEMEKKLQLSNRIDVVQSQVTELWDRVDKARRRESDISCRVTAWAQHLSEMMNEVKLKKAKMGTTMEISATLSAEIQESLDLLAEKRVIVQRMREEIDYRRHLHKQQLKDLKLDCDREEEKCEYWNDKSAEIEKVVEMLKEQRKSLGERVEEEKRMEQEQKKMLEELEMLLKKTGKKRQILDENANLVASFSSLTEESS”, the “soluble on expression in E. coli” value is listed as “not soluble”.

In the case of “MDILKKIEKYREEEQRLKWEGTFADYLEIIKENPMVAQSAHSRVFNMIKDSGIEEIDGRKKYSFFDRELFGLEESLERLVEEYFHPAAKRLDVRKRILLLMGPVSGGKSTLVTMLKKGLEAYTLTDNGAVYAIKGCPMHEDPLHLIPHHLRDDFYREYGIRIEGSLSPLNVMRLEEEYGGRIEDVKVERIFFSEDKRTGIGTFSPSDPKSQDIADLTGSIDFSTIAEYGSESDPRAYRFDGELNKANRGMMEFQEMLKCDEKFLWHLLSLTQEGNFKAGRFALISADELIVAHTNETEYRSFISNKKNEALHSRIIVMPVPYNLKVSEEERIYEKMIAESDVADVHIAPHTLKVAAMFSILTRLKEPKRSD”, the “soluble on expression in E. coli” value is “not soluble”.

Turning to “MDILVREVDVSEYVSIVVNRDSFNTIEYFICAPFSGQRLRGTARPGQTVVFRQQNLTNVVEKLGKNSFRCIVKADELPKSFQKSQEFVVARGRFQQFLKVAEGSRLSKLEPMSDTEMASNAIKDVREMAEQDLIGSRKTPFYEMFTRFAQQKVTSSDQEDTIENLHTRNNYEDIFDVLKSNLNKNEQLNDIDGRNNQKSDKMTEVDQTDKMHLTELEVKQKV”, the “soluble on expression in E. coli” value is “not soluble”.

Regarding “MDIMLVLWNGTPPMTRPEIEKVINTKKKLASTTILSLLTRLESKNFVEVTKQGKLNLYTPLVSQSDYQAHESQSVLEKLYGNSLKKFVTSLYQGKKISSEEIHELSDFLKELEDGEE”, the “soluble on expression in E. coli” value is “not soluble”.
